Data published in US20230094162A1.
Read-outs that look alike come from different tables or passages of the source. One block for each substance: values may come before it.

Tests used:
[1] = molecular target: CD137 expressed on the cell surface (CHO/CD137 cells) (UniProt Q07011); assay: cell-based or functional assay
[2] = molecular target: CD137 expressed on the cell surface (CHO/CD137 cells) (UniProt Q07011); assay: flow cytometry on CHO/CD137 cells (Surface Binding)
[3] = molecular target: CD137 expressed on the cell surface (CHO/CD137 cells) (UniProt Q07011); assay: flow cytometry (FACS) on CHO cells expressing CD137, MFI
[4] = molecular target: PD-L1 expressed on the cell surface (CHO/PD-L1 cells) (UniProt Q9NZQ7); assay: flow cytometry (FACS) on CHO cells expressing PD-L1, MFI
PD-L1 expressed on the cell surface (CHO/PD-L1 cells), sequence (Q9NZQ7 19-290): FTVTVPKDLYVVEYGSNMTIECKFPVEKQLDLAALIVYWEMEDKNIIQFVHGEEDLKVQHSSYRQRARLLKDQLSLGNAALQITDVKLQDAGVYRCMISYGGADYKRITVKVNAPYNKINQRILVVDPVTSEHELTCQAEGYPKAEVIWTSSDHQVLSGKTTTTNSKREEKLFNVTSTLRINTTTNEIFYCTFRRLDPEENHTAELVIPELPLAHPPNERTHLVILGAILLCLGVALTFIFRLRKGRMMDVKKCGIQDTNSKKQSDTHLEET

[5] = molecular target: PD-L1 expressed on the cell surface (CHO/PD-L1 cells) (UniProt Q9NZQ7)

CD137 expressed on the cell surface (CHO/CD137 cells), sequence (Q07011 24-255 limits assumed): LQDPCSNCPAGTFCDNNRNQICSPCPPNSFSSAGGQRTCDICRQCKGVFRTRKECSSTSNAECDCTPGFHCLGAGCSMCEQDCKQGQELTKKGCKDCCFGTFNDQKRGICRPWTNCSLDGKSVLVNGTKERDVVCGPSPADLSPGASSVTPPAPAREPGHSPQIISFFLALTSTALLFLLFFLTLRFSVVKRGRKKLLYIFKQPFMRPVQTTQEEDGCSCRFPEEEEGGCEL

Reporter Assay (RLU), 0.08 µg/mL [1]: 1250 RLU | Reporter Assay (RLU), IgG conc 0.02 µg/mL [1]: 1020 RLU | Reporter Assay (RLU), IgG conc 0.1 µg/mL [1]: 1240 RLU | MFI max [2]: 149 MFI
Substance: non-specific mAb (antibody)

EC50 (read off the curve) [3]: 0.06 µg/mL
Substance: replica of the agonistic anti-CD137 mAb urelumab (r-urelumab) (antibody)

EC50 (read off the curve) [4]: 0.01 µg/mL | EC50 (read off the curve) [5]: 0.3 µg/mL
Substance: replica of the anti-PD-L1 antibody atezolizumab (r-atezolizumab)
